Data on nine molecules can be found in US20040203002 (published 2004).

Data set [1] addresses T1, Zif268 wildtype (three zinc fingers, phage displayed) (Mus musculus, UniProt P08046 P08046:333-421). Kind of data set: ELONA; apparent Kd, phage ELISA, PBS/Zn, RT.
For data set [2], the target named is T1, Zif268 wildtype (three zinc fingers, …). In words: ELONA; negative control; apparent Kd; microarray signal 0.052.
Data set [3] shares this target. In words: apparent Kd interpolated from microarray signal 0.150.
The target is the same in data set [4]. Kind of data set: apparent Kd interpolated from microarray signal 0.320.
The target is the same in data set [5]. Kind of data set: apparent Kd interpolated from microarray signal 0.085.
For data set [6] the target is unchanged. Kind of data set: apparent Kd interpolated from microarray signal 0.372.

B1: Zif268 site TAG (dsDNA)
DNA 1: TATATAGCGTAGGCGTATATATCAAGTCAATCGGTCC
DNA 2: GGACCGATTGACTTGATATATACGCCTACGCTATATA
modifications: [none]
With B1, the Kd in data set [1] is 6.7 nM.

B2: Zif268 site AAA (dsDNA)
DNA 1: TATATAGCGAAAGCGTATATATCAAGTCAATCGGTCC
DNA 2: GGACCGATTGACTTGATATATACGCTTTCGCTATATA
modifications: [none]
B2: the Kd in data set [2] is over 5000 nM.

B3: Zif268 site CAG (dsDNA)
DNA 1: TATATAGCGCAGGCGTATATATCAAGTCAATCGGTCC
DNA 2: GGACCGATTGACTTGATATATACGCCTGCGCTATATA
modifications: [none]
Regarding B3, in data set [1], the Kd came out at 380 nM.

B4: Zif268 site GAG (dsDNA)
DNA 1: TATATAGCGGAGGCGTATATATCAAGTCAATCGGTCC
DNA 2: GGACCGATTGACTTGATATATACGCCTCCGCTATATA
modifications: [none]
B4: in data set [3], the Kd was found to be 75 nM.

B5: Zif268 site CGG (dsDNA)
DNA 1: TATATAGCGCGGGCGTATATATCAAGTCAATCGGTCC
DNA 2: GGACCGATTGACTTGATATATACGCCCGCGCTATATA
modifications: [none]
In the case of B5, the Kd in data set [4] turned out to be 35 nM.

B6: Zif268 site TCG (dsDNA)
DNA 1: TATATAGCGTCGGCGTATATATCAAGTCAATCGGTCC
DNA 2: GGACCGATTGACTTGATATATACGCCGACGCTATATA
modifications: [none]
For the molecule B6, the Kd in data set [5] was 180 nM.

B7: Zif268 site TTG (dsDNA)
DNA 1: TATATAGCGTTGGCGTATATATCAAGTCAATCGGTCC
DNA 2: GGACCGATTGACTTGATATATACGCCAACGCTATATA
modifications: [none]
Take B7: the Kd in data set [1] stood at 71 nM.

B8: Zif268 site GGG (dsDNA)
DNA 1: TATATAGCGGGGGCGTATATATCAAGTCAATCGGTCC
DNA 2: GGACCGATTGACTTGATATATACGCCCCCGCTATATA
modifications: [none]
As for B8, in data set [6], the Kd worked out at 28 nM.

B9: Zif268 site AGG (dsDNA)
DNA 1: TATATAGCGAGGGCGTATATATCAAGTCAATCGGTCC
DNA 2: GGACCGATTGACTTGATATATACGCCCTCGCTATATA
modifications: [none]
Regarding B9, the Kd in data set [1] was found to be 54 nM.
